This test deals with T1, Aeropyrum pernix aEF1α (residues 7-437), C-terminally His-tagged, wild type (Aeropyrum pernix, UniProt Q9YAV0 7-437).
T1 sequence: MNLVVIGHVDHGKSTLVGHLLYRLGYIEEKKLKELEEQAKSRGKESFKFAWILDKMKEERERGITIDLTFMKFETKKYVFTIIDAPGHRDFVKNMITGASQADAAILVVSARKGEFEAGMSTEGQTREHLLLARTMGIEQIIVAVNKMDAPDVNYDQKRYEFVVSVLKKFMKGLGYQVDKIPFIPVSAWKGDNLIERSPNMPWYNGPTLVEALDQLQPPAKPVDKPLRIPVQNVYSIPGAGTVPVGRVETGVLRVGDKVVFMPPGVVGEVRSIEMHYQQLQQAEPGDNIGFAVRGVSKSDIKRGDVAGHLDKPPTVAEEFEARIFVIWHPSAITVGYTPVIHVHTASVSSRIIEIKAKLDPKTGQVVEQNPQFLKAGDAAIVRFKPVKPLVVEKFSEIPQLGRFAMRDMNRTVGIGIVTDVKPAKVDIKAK
Nature of the test: pull-down.

B1: archaeal RF1 (aRF1), archaeal class I release factor, Aeropyrum pernix (natural protein)
chain: MSQGRLEERLTISKRELARLLKELKKWSAPATVLLSLYIPPGRPLSDVMTLLRQEYSITDNIKLKRTRQAVKRALSAAMDRLQMLTSTPPNGLVLFCGEDMSTGKFECFMFSPPEPIRVFYYRTDKRFITDFLEDMVEDNNAIGIIIVERDQATIGLLKGARLEVLKELEGFVPGKHKMGGQSQRRYERIIEQMVDEFFKKVGEEASNLLVPLAEKGVLKGVIVAGPGLAKQEFVEGNYLDYRLKKILAPELVDVAYQGLQGLKEAVMKAEKVVEAQMYRDAVNAMEEFKLHLAKGTGMIVYGEKDVEAALEMGAVKTLLIHESREDLEEWVEKAKSSGAQVIVVPESLAEAEWFLKTFGGLAGILRFRISTV
Take B1: the binding result is “binds”.

The record behind these values is article PMC3467058 (Nucleic Acids Research, 2012).
